Measurements from paper PMC12775124, “CUL4A-DDB1-DCAF10 is an N-recognin for N-terminally acetylated Src kinases” (Nature Communications, 2026).

Assays:
CUL4A-DDB1-DCAF10 = experiment: In vitro ubiquitination of Lyn-GFP variants by CUL4A-DDB1-DCAF10; assay type: biochemical, human; details: relative to Lyn^WT-GFP, NMT1/2 siRNA 72 h, mean ± s.d., n = 3
Source text: Lyn^WT-GFP was ubiquitinated by the WT E3 complex in both conditions; however, unlike in vitro ubiquitination with endogenous Lyn (Fig. 5c, d), ubiquitination increased ~6-fold under NMT1/2 siRNA conditions. This is consistent with DCAF10 being limiting and overexpressed Lyn-GFP, accumulating an acetylated fraction available for DCAF10 in vitro. Then, we performed IPs for all Nt variants under NMT1/2 siRNA conditions (Fig. 6d, h–i). […] In vitro ubiquitination assays using untreated cell lysates led to similar results (Supplementary Fig. 7h, i).
Reactions contained E1, UBCH5B (E2), ubiquitin, Mg-ATP in ligation buffer and were incubated with bead-bound substrates, followed by washing and immunoblot detection of ubiquitinated species (anti-ubiquitin), with loading controls (anti-Lyn, -Fyn, -Src or -GFP) (n = 3 independent enzymatic assays). Complete reagent lists, complex preparation, substrate IP conditions, wash buffers, and gel/blot parameters are provided in the Supplementary Methods and Tables.
357 (v/v) glycerol, 2 mM TCEP, supplemented with Protease Inhibitor Cocktail), and lysed
358 by sonication. Lysates were cleared by centrifugation at 28,000 rpm for 45 min at 4 °C […]
382 EDTA, and loaded on a gradient gel (4–15%). Ubiquitination of substrates was assessed
383 by WB using an anti-ubiquitin antibody. Equal substrate loading was evaluated by anti- […]

[1] = test system: DLD-1 Lyn KO Flp-In T-REx cells; experiment: Direct ubiquitin blot of Lyn-GFP immunoprecipitates; assay type: cell-based, human; details: anti-GFP IP, anti-Ub blot, n = 3
Method: Fig. 6 N-terminal glycine mutation abolishes DCAF10-dependent stability and ubiquitination. a DLD-1 Flp-In T-REx cells and Lyn KO cells expressing Lyn^WT-GFP, Lyn^G2A-GFP, or Lyn^G2P-GFP were induced for 24 h with 100 ng/mL doxycycline. Cells were treated with NMT1/2 siRNA, DCAF10 siRNA, or both (or left untreated) for 72 h. Representative WBs are shown. Filled circles represent siRNA treatment, empty circles untreated. b WB quantifications of Lyn levels normalized to vinculin. Purple: untreated with NMT1/2 siRNA; blue: treated with NMT1/2 siRNA. Mean ± s.d. with individual data points are shown (n = 3 independent biological replicates). c Schematic of ubiquitination experiments. Created in BioRender. […] Lysates have been treated with NMT1/2 RNAi for 72 h. i Quantification of in vitro ubiquitination assays. Mean ± s.d. with individual data points are shown (n = 3 independent ubiquitination assays). Volcano plots of Lyn-GFP^WT binding partners: j NMT1/2 siRNA ± doxycycline (Dox); k Control ± doxycycline; l NMT1/2 siRNA vs. control both with doxycycline. The −log10 adjusted p-value (two-sided Student’s t test with permutation-based multiple-testing correction; y-axis) is plotted against the log2 fold change (x-axis). […]
We next assessed the role of the Lyn Nt-residue for ubiquitination by performing two complementary experimental set-ups (Fig. 6c). […]

Row | Molecule | Reduction of ubiquitination by the WT complex (CUL4A-DDB1-DCAF10) | Ubiquitination in cells (in words) [1]
1 | Lyn^G2A-GFP: Nt-mutant (G2A) Lyn-GFP (protein, UniProt P07948 2-512, looked up, variant G2A, GFP fusion) Tyrosine-protein kinase Lyn: ACIKSKGKDSLSDDGVDLKTQPVRNTERTIYVRDPTSNKQQRPVPESQLLPGQRFQTKDPEEQGDIVVALYPYDGIHPDDLSFKKGEKMKVLEEHGEWWKAKSLLTKKEGFIPSNYVAKLNTLETEEWFFKDITRKDAERQLLAPGNSAGAFLIRESETLKGSFSLSVRDFDPVHGDVIKHYKIRSLDNGGYYISPRITFPCISDMIKHYQKQADGLCRRLEKACISPKPQKPWDKDAWEIPRESIKLVKRLGAGQFGEVWMGYYNNSTKVAVKTLKPGTMSVQAFLEEANLMKTLQHDKLVRLYAVVTREEPIYIITEYMAKGSLLDFLKSDEGGKVLLPKLIDFSAQIAEGMAYIERKNYIHRDLRAANVLVSESLMCKIADFGLARVIEDNEYTAREGAKFPIKWTAPEAINFGCFTIKSDVWSFGILLYEIVTYGKIPYPGRTNADVMTALSQGYRMPRVENCPDELYDIMKMCWKEKAEERPTFDYLQSVLDDFYTATEGQYQQQP | ~ 82 ± 13% | no detectable ubiquitination
2 | Lyn^G2P-GFP: Nt-mutant (G2P) Lyn-GFP (protein, UniProt P07948 2-512, looked up, variant G2P, C-terminal GFP fusion) Tyrosine-protein kinase Lyn: PCIKSKGKDSLSDDGVDLKTQPVRNTERTIYVRDPTSNKQQRPVPESQLLPGQRFQTKDPEEQGDIVVALYPYDGIHPDDLSFKKGEKMKVLEEHGEWWKAKSLLTKKEGFIPSNYVAKLNTLETEEWFFKDITRKDAERQLLAPGNSAGAFLIRESETLKGSFSLSVRDFDPVHGDVIKHYKIRSLDNGGYYISPRITFPCISDMIKHYQKQADGLCRRLEKACISPKPQKPWDKDAWEIPRESIKLVKRLGAGQFGEVWMGYYNNSTKVAVKTLKPGTMSVQAFLEEANLMKTLQHDKLVRLYAVVTREEPIYIITEYMAKGSLLDFLKSDEGGKVLLPKLIDFSAQIAEGMAYIERKNYIHRDLRAANVLVSESLMCKIADFGLARVIEDNEYTAREGAKFPIKWTAPEAINFGCFTIKSDVWSFGILLYEIVTYGKIPYPGRTNADVMTALSQGYRMPRVENCPDELYDIMKMCWKEKAEERPTFDYLQSVLDDFYTATEGQYQQQP | ~ 84 ± 10% | no detectable ubiquitination
